{"source": "patent US20040033229A1", "about": "(published 2004)", "molecular_target": "prostate specific membrane antigen (PSMA), full-length, on the cell surface (human, UniProt Q04609 1-750)", "sequence (Q04609 whole entry)": "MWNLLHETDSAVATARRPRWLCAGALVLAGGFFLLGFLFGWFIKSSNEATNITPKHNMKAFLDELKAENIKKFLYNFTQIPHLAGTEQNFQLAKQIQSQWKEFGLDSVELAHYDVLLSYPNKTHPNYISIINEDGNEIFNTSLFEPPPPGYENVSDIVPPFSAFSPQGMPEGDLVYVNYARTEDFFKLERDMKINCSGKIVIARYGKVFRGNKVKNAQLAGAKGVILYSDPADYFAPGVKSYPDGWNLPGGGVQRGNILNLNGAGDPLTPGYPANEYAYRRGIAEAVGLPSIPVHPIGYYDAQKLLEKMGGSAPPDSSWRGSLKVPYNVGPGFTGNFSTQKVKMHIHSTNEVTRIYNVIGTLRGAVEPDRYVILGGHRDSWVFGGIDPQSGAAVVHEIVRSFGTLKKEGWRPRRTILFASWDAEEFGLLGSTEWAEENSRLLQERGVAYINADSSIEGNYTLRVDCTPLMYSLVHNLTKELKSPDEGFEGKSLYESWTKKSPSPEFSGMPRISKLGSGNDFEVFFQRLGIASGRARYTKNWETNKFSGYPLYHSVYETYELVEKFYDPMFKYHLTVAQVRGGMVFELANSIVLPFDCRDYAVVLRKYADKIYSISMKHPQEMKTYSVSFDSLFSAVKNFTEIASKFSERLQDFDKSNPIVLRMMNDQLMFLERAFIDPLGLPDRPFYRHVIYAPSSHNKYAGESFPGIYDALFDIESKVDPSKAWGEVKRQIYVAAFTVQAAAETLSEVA", "experiment": "cell-based or functional assay"}
{"binder": "225Ac labeled mAb 026 (antibody, V domains shown, 225Ac-DOTA conjugate, sites not stated; 225Ac-DOTA conjugate, sites not stated ; 225Ac chelated by DOTA and conjugated to the antibody; sites not stated) VH: QVQLVESGGGVVQPGRSLRLSCAASGFTFSNYVMHWVRQAPGKGLEWVAIIWYDGSNKYYADSVKGRFTISRDNSKNTLYLQMNSLRAEDTAVYYCAGGYNWNYEYHYYGMDVWGQGTTVTVSS VL: DIQMTQSPSSLSASVGDRVTITCRASQGITNYLAWFQQKPGKAPKSLIYAASSLQSGVPSKFSGSGSGTDFSLTISSLQPEDFATYYCQQYNSYPITFGQGTRLEIK", "values": [{"measurement": "IC50 of cell survival (3H thymidine incorporation), C4-2 cells", "result": 0.12, "unit": "nCi/mL"}, {"measurement": "IC50 of cell survival, C4-2 and LNCaP cells", "result": "< 1", "unit": "nCi/mL"}, {"measurement": "selectivity of killing, C4-2 against PC3", "result": "> 50", "unit": "fold"}]}
